The assay concerns the target T1, Human transferrin receptor protein 1 (TFR1) (human, UniProt P02786 89-760, limits assumed).
T1 construct: also called huTfR
Kind of assay: column 'Affinity' of the construct table; method not stated.

T1 sequence (P02786 89-760 limits assumed): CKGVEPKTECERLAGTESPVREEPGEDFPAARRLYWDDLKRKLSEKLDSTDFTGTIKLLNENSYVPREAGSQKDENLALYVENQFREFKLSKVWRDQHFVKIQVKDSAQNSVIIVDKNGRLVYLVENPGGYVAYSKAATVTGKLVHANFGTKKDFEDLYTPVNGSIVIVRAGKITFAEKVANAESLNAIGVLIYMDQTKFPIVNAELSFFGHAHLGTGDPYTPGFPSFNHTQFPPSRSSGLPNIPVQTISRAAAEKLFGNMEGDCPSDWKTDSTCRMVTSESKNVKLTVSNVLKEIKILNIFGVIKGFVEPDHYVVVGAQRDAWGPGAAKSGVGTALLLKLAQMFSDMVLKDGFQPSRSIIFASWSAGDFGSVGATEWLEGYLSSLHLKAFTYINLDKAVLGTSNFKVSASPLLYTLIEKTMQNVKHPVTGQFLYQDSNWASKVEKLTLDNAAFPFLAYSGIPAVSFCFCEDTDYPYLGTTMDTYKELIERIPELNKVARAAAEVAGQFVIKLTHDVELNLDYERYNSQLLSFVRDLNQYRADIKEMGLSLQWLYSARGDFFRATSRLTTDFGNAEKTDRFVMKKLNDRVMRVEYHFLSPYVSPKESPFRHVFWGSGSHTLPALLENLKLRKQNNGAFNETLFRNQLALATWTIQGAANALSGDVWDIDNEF

B1: TV variant S239C (RSV Fab-Fc dimer fusion, CH3C.35.23.2 on the knob chain, LALA, S239C on the hole chain) (antibody, human IgG1, kappa, L234A L235A)
light: DIQMTQSPSTLSASVGDRVTITCKCQLSVGYMHWYQQKPGKAPKLLIYDTSKLASGVPSRFSGSGSGTEFTLTISSLQPDDFATYYCFQGSGYPFTFGGGTKLEIKRTVAAPSVFIFPPSDEQLKSGTASVVCLLNNFYPREAKVQWKVDNALQSGNSQESVTEQDSKDSTYSLSSTLTLSKADYEKHKVYACEVTHQGLSSPVTKSFNRGEC
heavy 1: QVTLRESGPALVKPTQTLTLTCTFSGFSLSTSGMSVGWIRQPPGKALEWLADIWWDDKKDYNPSLKSRLTISKDTSKNQVVLKVTNMEPADTATYYCARSMITNWYFDVWGAGTTVTVSSASTKGPSVFPLAPSSKSTSGGTAALGCLVKDYFPEPVTVSWNSGALTSGVHTFPAVLQSSGLYSLSSVVTVPSSSLGTQTYICNVNHKPSNTKVDKKVEPKSCDKTHTCPPCPAPEAAGGPSVFLFPPKPKDTLMISRTPEVTCVVVDVSHEDPEVKFNWYVDGVEVHNAKTKPREEQYNSTYRVVSVLTVLHQDWLNGKEYKCKVSNKALPAPIEKTISKAKGQPREPQVYTLPPSRDELTKNQVSLWCLVKGFYPSDIAVEWESYGTEWANYKTTPPVLDSDGSFFLYSKLTVTKEEWQQGFVFSCSVMHEALHNHYTQKSLSLSPGK
heavy 2: QVTLRESGPALVKPTQTLTLTCTFSGFSLSTSGMSVGWIRQPPGKALEWLADIWWDDKKDYNPSLKSRLTISKDTSKNQVVLKVTNMEPADTATYYCARSMITNWYFDVWGAGTTVTVSSASTKGPSVFPLAPSSKSTSGGTAALGCLVKDYFPEPVTVSWNSGALTSGVHTFPAVLQSSGLYSLSSVVTVPSSSLGTQTYICNVNHKPSNTKVDKKVEPKSCDKTHTCPPCPAPEAAGGPCVFLFPPKPKDTLMISRTPEVTCVVVDVSHEDPEVKFNWYVDGVEVHNAKTKPREEQYNSTYRVVSVLTVLHQDWLNGKEYKCKVSNKALPAPIEKTISKAKGQPREPQVYTLPPSRDELTKNQVSLSCAVKGFYPSDIAVEWESNGQPENNYKTTPPVLDSDGSFFLVSKLTVDKSRWQQGNVFSCSVMHEALHNHYTQKSLSLSPGK
notes: also called S239C (100 nM); S239 variant
The term Kd denotes the equilibrium constant for the complex coming apart. A low value points to a tighter complex. As for B1, the affinity, expressed as Kd, was 0.1 µM.

B2: TV variant 500 nM low affinity (RSV Fab-Fc dimer fusion, CH3C.35.23.4 on the knob chain, S239C on the hole chain) (antibody, human IgG1, kappa, L234A L235A)
light: DIQMTQSPSTLSASVGDRVTITCKCQLSVGYMHWYQQKPGKAPKLLIYDTSKLASGVPSRFSGSGSGTEFTLTISSLQPDDFATYYCFQGSGYPFTFGGGTKLEIKRTVAAPSVFIFPPSDEQLKSGTASVVCLLNNFYPREAKVQWKVDNALQSGNSQESVTEQDSKDSTYSLSSTLTLSKADYEKHKVYACEVTHQGLSSPVTKSFNRGEC
heavy 1: QVTLRESGPALVKPTQTLTLTCTFSGFSLSTSGMSVGWIRQPPGKALEWLADIWWDDKKDYNPSLKSRLTISKDTSKNQVVLKVTNMEPADTATYYCARSMITNWYFDVWGAGTTVTVSSASTKGPSVFPLAPSSKSTSGGTAALGCLVKDYFPEPVTVSWNSGALTSGVHTFPAVLQSSGLYSLSSVVTVPSSSLGTQTYICNVNHKPSNTKVDKKVEPKSCDKTHTCPPCPAPEAAGGPSVFLFPPKPKDTLMISRTPEVTCVVVDVSHEDPEVKFNWYVDGVEVHNAKTKPREEQYNSTYRVVSVLTVLHQDWLNGKEYKCKVSNKALPAPIEKTISKAKGQPREPQVYTLPPSRDELTKNQVSLWCLVKGFYPSDIAVEWESYGTEWSNYKTTPPVLDSDGSFFLYSKLTVSKEEWQQGFVFSCSVMHEALHNHYTQKSLSLSPGK
heavy 2: QVTLRESGPALVKPTQTLTLTCTFSGFSLSTSGMSVGWIRQPPGKALEWLADIWWDDKKDYNPSLKSRLTISKDTSKNQVVLKVTNMEPADTATYYCARSMITNWYFDVWGAGTTVTVSSASTKGPSVFPLAPSSKSTSGGTAALGCLVKDYFPEPVTVSWNSGALTSGVHTFPAVLQSSGLYSLSSVVTVPSSSLGTQTYICNVNHKPSNTKVDKKVEPKSCDKTHTCPPCPAPEAAGGPCVFLFPPKPKDTLMISRTPEVTCVVVDVSHEDPEVKFNWYVDGVEVHNAKTKPREEQYNSTYRVVSVLTVLHQDWLNGKEYKCKVSNKALPAPIEKTISKAKGQPREPQVYTLPPSRDELTKNQVSLSCAVKGFYPSDIAVEWESNGQPENNYKTTPPVLDSDGSFFLVSKLTVDKSRWQQGNVFSCSVMHEALHNHYTQKSLSLSPGK
notes: also called 500 nM variant
With B2, the Kd is 0.5 µM. This Kd lies about 5-fold higher than the previous one.

B3: TV variant A330C (RSV Fab-Fc dimer fusion, CH3C.35.23.2 on the knob chain, A330C on the hole chain) (antibody, human IgG1, kappa, L234A L235A)
light: DIQMTQSPSTLSASVGDRVTITCKCQLSVGYMHWYQQKPGKAPKLLIYDTSKLASGVPSRFSGSGSGTEFTLTISSLQPDDFATYYCFQGSGYPFTFGGGTKLEIKRTVAAPSVFIFPPSDEQLKSGTASVVCLLNNFYPREAKVQWKVDNALQSGNSQESVTEQDSKDSTYSLSSTLTLSKADYEKHKVYACEVTHQGLSSPVTKSFNRGEC
heavy 1: QVTLRESGPALVKPTQTLTLTCTFSGFSLSTSGMSVGWIRQPPGKALEWLADIWWDDKKDYNPSLKSRLTISKDTSKNQVVLKVTNMEPADTATYYCARSMITNWYFDVWGAGTTVTVSSASTKGPSVFPLAPSSKSTSGGTAALGCLVKDYFPEPVTVSWNSGALTSGVHTFPAVLQSSGLYSLSSVVTVPSSSLGTQTYICNVNHKPSNTKVDKKVEPKSCDKTHTCPPCPAPEAAGGPSVFLFPPKPKDTLMISRTPEVTCVVVDVSHEDPEVKFNWYVDGVEVHNAKTKPREEQYNSTYRVVSVLTVLHQDWLNGKEYKCKVSNKALPAPIEKTISKAKGQPREPQVYTLPPSRDELTKNQVSLWCLVKGFYPSDIAVEWESYGTEWANYKTTPPVLDSDGSFFLYSKLTVTKEEWQQGFVFSCSVMHEALHNHYTQKSLSLSPGK
heavy 2: QVTLRESGPALVKPTQTLTLTCTFSGFSLSTSGMSVGWIRQPPGKALEWLADIWWDDKKDYNPSLKSRLTISKDTSKNQVVLKVTNMEPADTATYYCARSMITNWYFDVWGAGTTVTVSSASTKGPSVFPLAPSSKSTSGGTAALGCLVKDYFPEPVTVSWNSGALTSGVHTFPAVLQSSGLYSLSSVVTVPSSSLGTQTYICNVNHKPSNTKVDKKVEPKSCDKTHTCPPCPAPEAAGGPSVFLFPPKPKDTLMISRTPEVTCVVVDVSHEDPEVKFNWYVDGVEVHNAKTKPREEQYNSTYRVVSVLTVLHQDWLNGKEYKCKVSNKALPCPIEKTISKAKGQPREPQVYTLPPSRDELTKNQVSLSCAVKGFYPSDIAVEWESNGQPENNYKTTPPVLDSDGSFFLVSKLTVDKSRWQQGNVFSCSVMHEALHNHYTQKSLSLSPGK
notes: also called Conjugation site A330C
Consider B3, for which the Kd worked out at 0.1 µM.

B4: TV variant OTR2 (RSV Fab-Fc dimer fusion, CH3C.35.23.2 on the knob chain, S239C on both chains) (antibody, human IgG1, kappa, L234A L235A)
light: DIQMTQSPSTLSASVGDRVTITCKCQLSVGYMHWYQQKPGKAPKLLIYDTSKLASGVPSRFSGSGSGTEFTLTISSLQPDDFATYYCFQGSGYPFTFGGGTKLEIKRTVAAPSVFIFPPSDEQLKSGTASVVCLLNNFYPREAKVQWKVDNALQSGNSQESVTEQDSKDSTYSLSSTLTLSKADYEKHKVYACEVTHQGLSSPVTKSFNRGEC
heavy 1: QVTLRESGPALVKPTQTLTLTCTFSGFSLSTSGMSVGWIRQPPGKALEWLADIWWDDKKDYNPSLKSRLTISKDTSKNQVVLKVTNMEPADTATYYCARSMITNWYFDVWGAGTTVTVSSASTKGPSVFPLAPSSKSTSGGTAALGCLVKDYFPEPVTVSWNSGALTSGVHTFPAVLQSSGLYSLSSVVTVPSSSLGTQTYICNVNHKPSNTKVDKKVEPKSCDKTHTCPPCPAPEAAGGPCVFLFPPKPKDTLMISRTPEVTCVVVDVSHEDPEVKFNWYVDGVEVHNAKTKPREEQYNSTYRVVSVLTVLHQDWLNGKEYKCKVSNKALPAPIEKTISKAKGQPREPQVYTLPPSRDELTKNQVSLWCLVKGFYPSDIAVEWESYGTEWANYKTTPPVLDSDGSFFLYSKLTVTKEEWQQGFVFSCSVMHEALHNHYTQKSLSLSPGK
heavy 2: QVTLRESGPALVKPTQTLTLTCTFSGFSLSTSGMSVGWIRQPPGKALEWLADIWWDDKKDYNPSLKSRLTISKDTSKNQVVLKVTNMEPADTATYYCARSMITNWYFDVWGAGTTVTVSSASTKGPSVFPLAPSSKSTSGGTAALGCLVKDYFPEPVTVSWNSGALTSGVHTFPAVLQSSGLYSLSSVVTVPSSSLGTQTYICNVNHKPSNTKVDKKVEPKSCDKTHTCPPCPAPEAAGGPCVFLFPPKPKDTLMISRTPEVTCVVVDVSHEDPEVKFNWYVDGVEVHNAKTKPREEQYNSTYRVVSVLTVLHQDWLNGKEYKCKVSNKALPAPIEKTISKAKGQPREPQVYTLPPSRDELTKNQVSLSCAVKGFYPSDIAVEWESNGQPENNYKTTPPVLDSDGSFFLVSKLTVDKSRWQQGNVFSCSVMHEALHNHYTQKSLSLSPGK
notes: also called OTR2 (1.23)
B4 gave a Kd of 0.1 µM.

B5: TV variant OTR4 (RSV Fab-Fc dimer fusion, CH3C.35.23.2 on the knob chain, S239C and A330C on both chains) (antibody, human IgG1, kappa, L234A L235A)
light: DIQMTQSPSTLSASVGDRVTITCKCQLSVGYMHWYQQKPGKAPKLLIYDTSKLASGVPSRFSGSGSGTEFTLTISSLQPDDFATYYCFQGSGYPFTFGGGTKLEIKRTVAAPSVFIFPPSDEQLKSGTASVVCLLNNFYPREAKVQWKVDNALQSGNSQESVTEQDSKDSTYSLSSTLTLSKADYEKHKVYACEVTHQGLSSPVTKSFNRGEC
heavy 1: QVTLRESGPALVKPTQTLTLTCTFSGFSLSTSGMSVGWIRQPPGKALEWLADIWWDDKKDYNPSLKSRLTISKDTSKNQVVLKVTNMEPADTATYYCARSMITNWYFDVWGAGTTVTVSSASTKGPSVFPLAPSSKSTSGGTAALGCLVKDYFPEPVTVSWNSGALTSGVHTFPAVLQSSGLYSLSSVVTVPSSSLGTQTYICNVNHKPSNTKVDKKVEPKSCDKTHTCPPCPAPEAAGGPCVFLFPPKPKDTLMISRTPEVTCVVVDVSHEDPEVKFNWYVDGVEVHNAKTKPREEQYNSTYRVVSVLTVLHQDWLNGKEYKCKVSNKALPCPIEKTISKAKGQPREPQVYTLPPSRDELTKNQVSLWCLVKGFYPSDIAVEWESYGTEWANYKTTPPVLDSDGSFFLYSKLTVTKEEWQQGFVFSCSVMHEALHNHYTQKSLSLSPGK
heavy 2: QVTLRESGPALVKPTQTLTLTCTFSGFSLSTSGMSVGWIRQPPGKALEWLADIWWDDKKDYNPSLKSRLTISKDTSKNQVVLKVTNMEPADTATYYCARSMITNWYFDVWGAGTTVTVSSASTKGPSVFPLAPSSKSTSGGTAALGCLVKDYFPEPVTVSWNSGALTSGVHTFPAVLQSSGLYSLSSVVTVPSSSLGTQTYICNVNHKPSNTKVDKKVEPKSCDKTHTCPPCPAPEAAGGPCVFLFPPKPKDTLMISRTPEVTCVVVDVSHEDPEVKFNWYVDGVEVHNAKTKPREEQYNSTYRVVSVLTVLHQDWLNGKEYKCKVSNKALPCPIEKTISKAKGQPREPQVYTLPPSRDELTKNQVSLSCAVKGFYPSDIAVEWESNGQPENNYKTTPPVLDSDGSFFLVSKLTVDKSRWQQGNVFSCSVMHEALHNHYTQKSLSLSPGK
notes: also called OTR4 (2.5)
Take B5: the Kd came out at 0.1 µM.
